Experimental findings from patent US7005258 are described below.

Data set [1] addresses Xenopus cyclin B2 (Xenopus laevis) (UniProt P13351). Put plainly: co-immunoprecipitation, quantified immunoblots. For orientation: Immunoblotting shows a protein as a band on a membrane.
The target of data set [2] is Xenopus cdc2 (34 kD) (Xenopus laevis) (UniProt P24033). The experiment in a line: co-immunoprecipitation with anti-cdc25 antibody against p13-Sepharose precipitate as total, quantified immunoblot.
The target of data set [3] is Xenopus cyclin B2 (Xenopus laevis) (UniProt P13351). The data set is described as above.
Data set [4] deals with Xenopus cdc2 (34 kD) (Xenopus laevis) (UniProt P24033). Put plainly: co-immunoprecipitation, quantified immunoblots, metaphase eggs.
Data set [5] deals with starfish p34^cdc2, tyrosine-phosphorylated, from G2-arrested oocytes.
Data set [6] deals with GST-cdc25 A fusion protein (glutathione-S-transferase / human cdc25 A) (human) [GST: P08515]. The experiment in a line: cell-based or functional assay.
In data set [7] the target is Xenopus cdc2/cyclin B complex (UniProt P24033).
Data set [8] has as its target Xenopus cdc2 from prophase oocytes, tyrosine phosphorylated (UniProt P24033).
In data set [9] the target is Xenopus cdc2 (34 kD) (UniProt P24033).
Xenopus cdc2 (34 kD), sequence (P24033 whole entry): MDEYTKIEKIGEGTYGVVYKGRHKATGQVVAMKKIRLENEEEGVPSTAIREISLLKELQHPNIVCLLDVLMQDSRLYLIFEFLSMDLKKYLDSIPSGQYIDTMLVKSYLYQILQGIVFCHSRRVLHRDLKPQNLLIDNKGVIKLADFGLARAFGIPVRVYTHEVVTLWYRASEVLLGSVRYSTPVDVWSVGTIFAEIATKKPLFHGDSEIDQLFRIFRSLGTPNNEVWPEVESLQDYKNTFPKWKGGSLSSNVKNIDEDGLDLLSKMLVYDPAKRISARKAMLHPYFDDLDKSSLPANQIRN

Xenopus cyclin B2 (Xenopus laevis), sequence (P13351 whole entry): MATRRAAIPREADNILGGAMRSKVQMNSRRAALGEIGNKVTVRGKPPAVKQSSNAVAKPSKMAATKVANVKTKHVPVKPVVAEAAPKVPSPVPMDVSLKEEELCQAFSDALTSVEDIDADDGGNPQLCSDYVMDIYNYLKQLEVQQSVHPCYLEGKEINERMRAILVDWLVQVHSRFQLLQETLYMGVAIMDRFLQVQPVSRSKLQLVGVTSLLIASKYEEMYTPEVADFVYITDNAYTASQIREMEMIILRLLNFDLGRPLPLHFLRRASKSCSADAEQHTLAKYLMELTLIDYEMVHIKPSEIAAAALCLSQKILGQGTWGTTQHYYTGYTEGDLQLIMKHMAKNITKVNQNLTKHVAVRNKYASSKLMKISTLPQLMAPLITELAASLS
Xenopus cdc2 (34 kD) (Xenopus laevis), sequence (P24033 whole entry): as the sequence (P24033 whole entry) above
Xenopus cdc25 protein (p72), sequence (Q13972 whole entry): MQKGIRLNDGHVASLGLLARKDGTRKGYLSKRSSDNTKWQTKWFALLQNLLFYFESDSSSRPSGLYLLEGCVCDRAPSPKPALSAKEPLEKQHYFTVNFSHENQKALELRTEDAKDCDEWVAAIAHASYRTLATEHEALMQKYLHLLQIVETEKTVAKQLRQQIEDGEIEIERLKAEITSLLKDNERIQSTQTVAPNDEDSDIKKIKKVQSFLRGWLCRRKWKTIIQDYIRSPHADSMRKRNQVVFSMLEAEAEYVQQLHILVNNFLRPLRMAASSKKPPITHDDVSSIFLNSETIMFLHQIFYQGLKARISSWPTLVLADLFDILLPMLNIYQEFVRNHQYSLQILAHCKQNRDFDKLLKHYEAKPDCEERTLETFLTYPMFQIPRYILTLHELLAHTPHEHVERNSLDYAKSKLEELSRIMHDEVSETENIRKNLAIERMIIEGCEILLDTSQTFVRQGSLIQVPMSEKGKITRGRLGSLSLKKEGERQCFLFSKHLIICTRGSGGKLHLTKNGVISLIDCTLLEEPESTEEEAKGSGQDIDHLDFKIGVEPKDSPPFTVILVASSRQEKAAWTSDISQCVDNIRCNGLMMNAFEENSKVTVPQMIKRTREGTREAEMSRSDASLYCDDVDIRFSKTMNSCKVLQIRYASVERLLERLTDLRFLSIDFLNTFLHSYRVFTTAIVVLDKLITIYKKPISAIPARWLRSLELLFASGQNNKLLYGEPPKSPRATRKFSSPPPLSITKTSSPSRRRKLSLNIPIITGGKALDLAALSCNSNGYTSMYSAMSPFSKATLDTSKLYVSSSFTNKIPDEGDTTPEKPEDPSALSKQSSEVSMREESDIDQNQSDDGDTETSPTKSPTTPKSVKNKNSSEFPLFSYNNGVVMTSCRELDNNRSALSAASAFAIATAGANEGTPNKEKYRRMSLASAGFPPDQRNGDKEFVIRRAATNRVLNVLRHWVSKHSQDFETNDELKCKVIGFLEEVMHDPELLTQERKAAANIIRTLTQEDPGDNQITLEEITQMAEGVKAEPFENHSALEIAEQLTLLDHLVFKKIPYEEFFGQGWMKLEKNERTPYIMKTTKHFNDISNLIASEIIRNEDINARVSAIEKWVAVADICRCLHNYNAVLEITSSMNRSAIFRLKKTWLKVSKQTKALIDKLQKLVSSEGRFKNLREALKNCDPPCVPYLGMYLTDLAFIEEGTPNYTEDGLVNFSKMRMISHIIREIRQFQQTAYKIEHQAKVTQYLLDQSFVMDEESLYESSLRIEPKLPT
Xenopus cdc2/cyclin B complex, sequence (P24033 whole entry, chain 1 of 2): as the sequence (P24033 whole entry) above
Xenopus cdc2/cyclin B complex, sequence (chain, as listed by the source, chain 2 of 2): as the sequence (P13351 whole entry) above
Xenopus cdc2 from prophase oocytes, tyrosine phosphorylated, sequence (P24033 whole entry): as the sequence (P24033 whole entry) above

In data set [1], “Xenopus cdc25 protein (p72) (from UniProt Q13972) (enzyme)” had a percent of the full cellular content of cdc25 present in anti-cyclin B2 immunoprecipitates of 20% and a percent of the total population of cyclin B2 associated with cdc25 of 17%. This substance yielded a fold, cdc2 in p13-Sepharose precipitate over cdc2 in anti-cdc25 immunoprecipitate in data set [2] of 20 fold. This substance also came in with a fold, cyclin B2 in p13-Sepharose precipitates over cyclin B2 in anti-cdc25 immunoprecipitate in [3] of 6 fold. In data set [4], this substance returned a percent of the cellular content of cdc25 present in anti-cdc2 immunoprecipitates of 20% and a percent of the total cellular cdc2 present in anti-cdc25 immunoprecipitates of 5%.
Take “GST-cdc25 A fusion protein (glutathione-S-transferase / human cdc25 A)”: in [5], the “tyrosine dephosphorylation of p34^cdc2” value was “Treatment with purified GST-cdc25A protein induced almost complete tyrosine dephosphorylation of p34^cdc2”.
For the substance “human cyclin B2 expressed as fusion protein with GST (from UniProt O95067 1-398)”, the tyrosine phosphatase activity of cdc25 A against 32P-labelled RCML in [6] worked out at 4 fold.
For Xenopus cdc25 protein (p72), the “histone H1 kinase activity of fully activated cdc2/cyclin from metaphase unfertilized eggs” value in [7] was “In neither case did p72 have any effect on the histone H1 kinase activity of cdc2”. The “histone H1 kinase activity of inactive prophase p13-bound cdc2” value in data set [8] was “Both prophase and metaphase cdc25 stimulated histone H1 kinase activity 12-fold”. For the same substance, in data set [9], the “histone H1 kinase activity in anti-cdc25 immunoprecipitates” value is given as “Histone H1 kinase activity was detected in anti-cdc25 immunoprecipitates from metaphase eggs”; the “histone H1 kinase activity of cdc2 that is inactive in the absence of cyclin (eggs activated in the presence of cycloheximide)” value is “In neither case did p72 have any effect on the histone H1 kinase activity of cdc2”; the “relative metaphase kinase activity in p13-Sepharose precipitates and anti-cdc25 immunoprecipitates” value was “approximately 20-fold different”.
On to “human cyclin B1 expressed as fusion protein with GST (from UniProt P14635 1-433)”, for which, in data set [6], the amount of cyclin B1 at which activation of cdc25 A (10 pmoles) plateaus, RCML phosphatase assay turned out to be 10 pmol; the phosphatase activity of cdc25 A in the presence of p13 was determined as 8 fold; the tyrosine phosphatase activity of cdc25 A against 32P-labelled RCML was 4 fold.
